The test has as its target Flag-LEDGF/p75 (UniProt O75475 1-530). Put plainly: AlphaScreen or HTRF.

The text below walks through data of article doi:10.1101/2024.04.24.590897 (bioRxiv, 2024).

B1: GST-LEDGF/p52 (natural protein)
chain: not shown
In the case of B1, the binding result is given as “binds”.
